Test results reported in ChEMBL document CHEMBL4321793, “Can Cysteine Protease Cross-Class Inhibitors Achieve Selectivity?” (J Med Chem, 2019).

Key:
[1] = test system: N=C(N)NCCC[C@H](NC(=O)[C@H](Cc1ccncc1)NC(=O)OCc1ccccc1)C(=O)Nc1ccc2ccc(=O)oc2c1; test: (§1) Inhibition of human cathepsin B assessed as ratio of Kcat/Km using Z-Phe-Arg-MCA as substrate by spectrofluorometric method
[2] = test system: N=C(N)NCCC[C@H](NC(=O)[C@H](Cc1ccccc1)NC(=O)OCc1ccccc1)C(=O)Nc1ccc2ccc(=O)oc2c1; test: as §1
[3] = test system: N=C(N)NCCC[C@H](NC(=O)[C@H](Cc1ccc(NC(=N)N)cc1)NC(=O)OCc1ccccc1)C(=O)Nc1ccc2ccc(=O)oc2c1; test: as §1
[4] = test system: N=C(N)NCCC[C@H](NC(=O)OCc1ccccc1)C(=O)N[C@@H](CCCNC(=N)N)C(=O)Nc1ccc2ccc(=O)oc2c1; test: as §1

Cathepsin B (Homo sapiens)
kcat/Km [1]: 742000 M⁻¹ s⁻¹ | kcat/Km [2]: 2.32e+06 M⁻¹ s⁻¹ | kcat/Km [3]: 1.57e+06 M⁻¹ s⁻¹ | kcat/Km [4]: 554000 M⁻¹ s⁻¹
